According to patent publication US20210054049A1 (MERUS N V, published 2021):

Biological target: c-MET (UniProt P08581 25-932)
Assay: ELISA on c-MET coated plates

c-MET, sequence (P08581 25-932 limits assumed): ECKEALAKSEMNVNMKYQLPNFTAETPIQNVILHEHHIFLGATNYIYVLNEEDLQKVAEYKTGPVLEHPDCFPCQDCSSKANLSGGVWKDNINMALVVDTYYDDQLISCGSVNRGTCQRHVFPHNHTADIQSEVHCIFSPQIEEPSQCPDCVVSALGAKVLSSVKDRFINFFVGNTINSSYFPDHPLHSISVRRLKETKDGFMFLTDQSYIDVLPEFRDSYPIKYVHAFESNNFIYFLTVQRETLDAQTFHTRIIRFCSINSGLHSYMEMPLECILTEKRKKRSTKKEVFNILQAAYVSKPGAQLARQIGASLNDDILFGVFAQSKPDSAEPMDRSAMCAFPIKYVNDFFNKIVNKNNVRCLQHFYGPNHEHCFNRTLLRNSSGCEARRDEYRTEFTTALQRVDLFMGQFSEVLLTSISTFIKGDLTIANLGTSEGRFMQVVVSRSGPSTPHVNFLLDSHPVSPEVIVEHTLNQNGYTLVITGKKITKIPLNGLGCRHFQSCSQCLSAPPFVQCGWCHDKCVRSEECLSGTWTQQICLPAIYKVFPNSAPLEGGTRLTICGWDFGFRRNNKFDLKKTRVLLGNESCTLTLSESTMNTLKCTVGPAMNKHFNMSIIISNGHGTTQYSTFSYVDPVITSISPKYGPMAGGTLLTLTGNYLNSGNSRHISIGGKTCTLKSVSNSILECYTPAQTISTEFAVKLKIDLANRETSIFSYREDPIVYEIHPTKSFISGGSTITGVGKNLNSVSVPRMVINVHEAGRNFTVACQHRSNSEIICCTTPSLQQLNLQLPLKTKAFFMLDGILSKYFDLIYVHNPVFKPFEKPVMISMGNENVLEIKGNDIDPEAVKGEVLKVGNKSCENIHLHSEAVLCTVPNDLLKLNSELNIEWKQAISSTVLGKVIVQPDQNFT

Row | Binder | binding result
1 | PB27538p43 (bispecific antibody, also called PB27538p44; PB27538p33) heavy (part 1 of 2) 1: EVQLVETGGGVVQPGRSLRLSCAASGFTFSQYAMHWVRQAPGKGLEWVAIISHDERNKYYVDSGMGRFTISRDNSKNTLFLQMNSLRSEDTAVYYCARDMRKGGYYYGFDVWGQGTTVTVSSASTKGPSVFPLAPSSKSTSGGTAALGCLVKDYFPEPVTVSWNSGALTSGVHTFPAVLQSSGLYSLSSVVTVPSSSLGTQTYICNVNHKPSNTKVDK heavy (part 2 of 2) 1: not shown heavy (part 1 of 2) 2: not shown heavy (part 2 of 2) 2: not shown light: not shown | binds
2 | PB27538p45 (bispecific antibody, also called PB27538p35; MG1516C3210 x MG3462C3215) heavy (part 1 of 2) 1: EVQLVETGGGVVQPGRSLRLSCAASGFTFSQYAMHWVRQAPGKGLEWVAIISHDERNKYYVDSGMGRFTISRDNSKNTLFLQMNSLRSEDTAVYYCARDMRKGGYYYGFDVWGQGTTVTVSSASTKGPSVFPLAPSSKSTSGGTAALGCLVKDYFPEPVTVSWNSGALTSGVHTFPAVLQSSGLYSLSSVVTVPSSSLGTQTYICNVNHKPSNTKVDK heavy (part 2 of 2) 1: not shown heavy (part 1 of 2) 2: not shown heavy (part 2 of 2) 2: not shown light: not shown | binds
3 | PB27538p46 (bispecific antibody, also called PB27538p36; MG1516C3211 x MG3462C3215) heavy (part 1 of 2) 1: EVQLVETGGGVVQPGRSLRLSCAASGFTFSQYAMHWVRQAPGKGLEWVAIISHDERNKYYVDSGMGRFTISRDNSKNTLFLQMNSLRSEDTAVYYCARDMRKGGYYYGFDVWGQGTTVTVSSASTKGPSVFPLAPSSKSTSGGTAALGCLVKDYFPEPVTVSWNSGALTSGVHTFPAVLQSSGLYSLSSVVTVPSSSLGTQTYICNVNHKPSNTKVDK heavy (part 2 of 2) 1: not shown heavy (part 1 of 2) 2: not shown heavy (part 2 of 2) 2: not shown light: not shown | binds
4 | PB27538p48 (bispecific antibody, also called PB27538p38; MG1516C3209 x MG3462C3216) heavy (part 1 of 2) 1: EVQLVETGGGVVQPGRSLRLSCAASGFTFSQYAMHWVRQAPGKGLEWVAIISHDERNKYYVDSGMGRFTISRDNSKNTLFLQMNSLRSEDTAVYYCARDMRKGGYYYGFDVWGQGTTVTVSSASTKGPSVFPLAPSSKSTSGGTAALGCLVKDYFPEPVTVSWNSGALTSGVHTFPAVLQSSGLYSLSSVVTVPSSSLGTQTYICNVNHKPSNTKVDK heavy (part 2 of 2) 1: not shown heavy (part 1 of 2) 2: not shown heavy (part 2 of 2) 2: not shown light: not shown | binds
5 | PB27538p49 (bispecific antibody, also called PB27538p39; MG1516C3209 x MG3462C3217) heavy (part 1 of 2) 1: EVQLVETGGGVVQPGRSLRLSCAASGFTFSQYAMHWVRQAPGKGLEWVAIISHDERNKYYVDSGMGRFTISRDNSKNTLFLQMNSLRSEDTAVYYCARDMRKGGYYYGFDVWGQGTTVTVSSASTKGPSVFPLAPSSKSTSGGTAALGCLVKDYFPEPVTVSWNSGALTSGVHTFPAVLQSSGLYSLSSVVTVPSSSLGTQTYICNVNHKPSNTKVDK heavy (part 2 of 2) 1: not shown heavy (part 1 of 2) 2: not shown heavy (part 2 of 2) 2: not shown light: not shown | binds
6 | PB27538p50 (bispecific antibody, also called PB27538p40; MG1516C3209 x MG3462C3218) heavy (part 1 of 2) 1: EVQLVETGGGVVQPGRSLRLSCAASGFTFSQYAMHWVRQAPGKGLEWVAIISHDERNKYYVDSGMGRFTISRDNSKNTLFLQMNSLRSEDTAVYYCARDMRKGGYYYGFDVWGQGTTVTVSSASTKGPSVFPLAPSSKSTSGGTAALGCLVKDYFPEPVTVSWNSGALTSGVHTFPAVLQSSGLYSLSSVVTVPSSSLGTQTYICNVNHKPSNTKVDK heavy (part 2 of 2) 1: not shown heavy (part 1 of 2) 2: not shown heavy (part 2 of 2) 2: not shown light: not shown | binds
7 | PB27538p51 (bispecific antibody, also called PB27538p41; MG1516C3209 x MG3462C3219) heavy (part 1 of 2) 1: EVQLVETGGGVVQPGRSLRLSCAASGFTFSQYAMHWVRQAPGKGLEWVAIISHDERNKYYVDSGMGRFTISRDNSKNTLFLQMNSLRSEDTAVYYCARDMRKGGYYYGFDVWGQGTTVTVSSASTKGPSVFPLAPSSKSTSGGTAALGCLVKDYFPEPVTVSWNSGALTSGVHTFPAVLQSSGLYSLSSVVTVPSSSLGTQTYICNVNHKPSNTKVDK heavy (part 2 of 2) 1: not shown heavy (part 1 of 2) 2: not shown heavy (part 2 of 2) 2: not shown light: not shown | binds
8 | PB27538p52 (bispecific antibody, also called PB27538p42; MG1516C3209 x MG3462C3221) heavy (part 1 of 2) 1: EVQLVETGGGVVQPGRSLRLSCAASGFTFSQYAMHWVRQAPGKGLEWVAIISHDERNKYYVDSGMGRFTISRDNSKNTLFLQMNSLRSEDTAVYYCARDMRKGGYYYGFDVWGQGTTVTVSSASTKGPSVFPLAPSSKSTSGGTAALGCLVKDYFPEPVTVSWNSGALTSGVHTFPAVLQSSGLYSLSSVVTVPSSSLGTQTYICNVNHKPSNTKVDK heavy (part 2 of 2) 1: not shown heavy (part 1 of 2) 2: not shown heavy (part 2 of 2) 2: not shown light: not shown | binds
